Test results: patent US20100197575A1, “SOLUBLE INTERLEUKIN-20 RECEPTOR” (ZymoGenetics, Inc., published 2010)

T1: 125I-labeled IL-20 (Homo sapiens (Human), UniProt Q9NYY1, 125I-labeled)
T1 sequence: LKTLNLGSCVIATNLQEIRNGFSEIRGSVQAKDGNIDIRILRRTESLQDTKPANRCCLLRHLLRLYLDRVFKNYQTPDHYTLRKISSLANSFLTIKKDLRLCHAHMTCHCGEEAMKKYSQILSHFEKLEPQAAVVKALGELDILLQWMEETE


Tests used:
[1] = target: IL-20RA/IL-20RB heterodimeric receptor (human)
[2] = target: IL-20RA/IL-20RB heterodimeric receptor (human); remark: listed apart in the source
[3] = target: IL-20RA/IL-20RB heterodimeric receptor (human); remark: listed apart in the source
[4] = target: IL-20RA/IL-20RB heterodimeric receptor (human); remark: listed apart in the source
[5] = target: IL-20RA/IL-20RB heterodimeric receptor (human); remark: listed apart in the source
125I-labeled IL-20 = target: T1, 125I-labeled IL-20; assay: radiolabeled ligand binding to BHK cells stably transfected with IL-20RA and IL-20RB
Procedure: The specificity and affinity of IL-20 for its receptor was determined using BHK cells stably transfected with IL-20RA, IL-20RB or both receptor subunits. […] Binding of ¹²⁵I-labeled IL-20 was eliminated in the presence of 100-fold excess of unlabeled IL-20 but not with 100-fold excess of the unrelated cytokine, IL-21.

| half maximal response, proliferation of BaF3 cells co-transfected with IL-20RA and IL-20RB [1] | proliferation of BaF3 cells co-transfected with IL-20RA and IL-20RB [1] | half-maximal IL-20 concentration, STAT3 nuclear translocation in HaCaT cells [2] | half-maximal response, luciferase reporter in HaCaT cells, IL-20 in combination with a submaximal dose of IL-1beta [3] | half maximal response, SRE/STAT luciferase reporter in HaCaT cells [4] | half-maximal response, STAT-luciferase in BHK cells transfected with both receptor subunits [5] | Kd (125I-labeled IL-20) | Molecule |
| --- | --- | --- | --- | --- | --- | --- | --- |
| 3.4 pM | 1.1 pM | 7 nM | 0.5 nM | 2.3 nM | 5.7 pM | – | Interleukin-20 (IL-20) (from UniProt Q9NYY1) (ligand) |
| – | – | – | – | – | – | ~1.5 nM | IL-20RA/IL-20RB heterodimeric receptor (receptor) chain 1: VPCVSGGLPKPANITFLSINMKNVLQWTPPEGLQGVKVTYTVQYFIYGQKKWLNKSECRNINRTYCDLSAETSDYEHQYYAKVKAIWGTKCSKWAESGRFYPFLETQIGPPEVALTTDEKSISVVLTAPEKWKRNPEDLPVSMQQIYSNLKYNVSVLNTKSNRTWSQCVTNHTLVLTWLEPNTLYCVHVESFVPGPPRRAQPSEKQCARTLKDQSSEFKAKIIFWYVLPISITVFLFSVMGYSIYRYIHVGKEKHPANLILIYGNEFDKRFFVPAEKIVINFITLNISDDSKISHQDMSLLGKSSDVSSLNDPQPSGNLRPPQEEEEVKHLGYASHLMEIFCDSEENTEGTSFTQQESLSRTIPPDKTVIEYEYDVRTTDICAGPEEQELSLQEEVSTQGTLLESQAALAVLGPQTLQYSYTPQLQDLDPLAQEHTDSEEGPEEEPSTTLVDWDPQTGRLCIPSLSSFDQDSEGCEPSEGDGLGEEGLLSRLYEEPAPDRPPGENETYLMQFMEEWGLYVQMEN chain 2: DEVAILPAPQNLSVLSTNMKHLLMWSPVIAPGETVYYSVEYQGEYESLYTSHIWIPSSWCSLTEGPECDVTDDITATVPYNLRVRATLGSQTSAWSILKHPFNRNSTILTRPGMEITKDGFHLVIELEDLGPQFEFLVAYWRREPGAEEHVKMVRSGGIPVHLETMEPGAAYCVKAQTFVKAIGRYSAFSQTECVEVQGEAIPLVLALFAFVGFMLILVVVPLFVWKMGRLLQYSCCPVVVLPDTLKITNSPQKLISCRREEVDACATAVMSPEELLRAWIS |
